Numbered stars: 1 amine (or outer) side, 2 acyl side, 3 side chain; on linkers, the order of the positions; unused ones are H or OH. Square brackets hold non-standard residues; d marks the D form. Peptide text beside a SMILES is read from it. * marks the point of attachment. Hydrazinoacetyl = O=C(CNN[*:1])[*:2]; Isonicotinoyl = O=C(c1ccncc1)*

This is an account of results in paper PMC8632718, “Novel Assay Platform to Evaluate Intracellular Killing of Mycobacterium tuberculosis: In Vitro and In Vivo Validation” (Frontiers in Immunology, 2021).

One data set deals with MonoMac-6 cells. The following applies: 50 µM.
In a further data set the test system is EBC-1 cells. Format: cell-based, human. As to conditions: 10 µM, 3 hrs, fixed, 30 profiles. As for the experimental part: In addition to the internalization experiments, the surface morphology of INH-peptide-treated and fixed EBC-1 cells was also studied with atomic force microscopy (AFM) ( Supplementary Information 1.3 ). High-resolution imaging of the cell surfaces was performed with a Flex-Axiom AFM system (Nanosurf, Liestal, Switzerland).The representative images and surface roughness of the native and treated cells are shown in Supplementary Figure S2 .
1.3 Membrane integrity evaluation by atomic force microscopy (AFM) […]
High resolution imaging of the surfaces were performed with a Flex-Axiom AFM system (Nanosurf, Liestal, Switzerland) operating in dynamic mode utilizing soft-tapping cantilevers (Tap150-G, BudgetSensors) with nominal force constant of 5 N/m. The recorded images were evaluated with the Gwyddion software. […]
Two cut-off frequencies were chosen with real-space wavelengths of 1 μm and 200 nm. […] Figure 2D,E,F. Scale dependent surface roughness of the cells was determined according to Antonio et al. Mean Rq values are somewhat higher in the peptide and conjugate treated cells, but […]
Supplementary Figure 2. […] The apex area of the cells was selected for imaging with a scan area of 5 μm × 5 μm (512 × 512 pixel resolution), where the cellular curvature has the smallest distortion effect on the recorded height profiles. […]
1.4. […] To quantify […]

The format of data set [1] is in vitro ADME. The following applies: rat liver lysosomal homogenate, 37 °C, LC-MS. As for the experimental part:
Next, we examined the enzymatic stability of two peptide conjugates in rat liver lysosomal homogenate (see Supplementary Information 2 for the method description). Peptides were dissolved at 0.025 µg/µl concentration then allowed to react with the lysosomal homogenate. Degradation of the conjugates was fast. […]
1.2 Lysosomal degradation studies
Enzymatic stability of INH-Dhvar4 and INH-Penetratin conjugates were assayed in rat liver lysosomal homogenate (protein content was 16.6 µg/µl). Peptides were dissolved in 0.2 M Sodium acetate buffer (pH=5.03) at 0.025 µg/µl concentration and added to the lysosomal homogenate to reach 1 : 1 protein / peptide ratio (37 °C, 600 rpm vortex) . At different time points (5 min, 30 min, 1 h, 6 h, 24 h) the reaction was stopped by the addition of 5 µl formic acid. Sampled were then measured by LC-MS using a Thermo Scientific Q Exactive Focus Hybrid Quadrupole -Orbitrap Mass Spectrometer (Suppl. Figu re 1). For chromatography, a Wa ters Acquity UPLC BEH C18 (1.7 µ, 150 × 2.1 mm) column was used with a flow rate of 300 µL/min applying a gradient elution from 2% to […]
(1 picture or pasted object on this page, not shown here)

Consider `CC(C)C[C@H](NC(=O)[C@H](CCCNC(=N)N)NC(=O)[C@H](CCCCN)NC(=O)CNNC(=O)c1ccncc1)C(=O)N[C@@H](Cc1ccccc1)C(=O)N[C@@H](CCCCN)C(=O)N[C@@H](CCCCN)C(=O)N[C@@H](CC(C)C)C(=O)N[C@@H](CC(C)C)C(=O)N[C@@H](Cc1ccccc1)C(=O)N[C@@H](CO)C(=O)N[C@@H](CC(C)C)C(=O)N[C@@H](CCCNC(=N)N)C(=O)N[C@@H](CCCCN)C(=O)N[C@@H](Cc1ccc(O)cc1)C(N)=O` [INH-Dhvar4] (Isonicotinoyl-[Hydrazinoacetyl]KRLFKKLLFSLRKY-NH2), for which, in the data set with MonoMac-6 cells, the “viability of MonoMac-6 cells” value is listed as > 80%. For the same molecule, the “membrane integrity (AFM surface roughness Rq)” value in the data set on EBC-1 cells is listed as “membrane integrity maintained”. Moreover, the “peaks of the intact conjugates after 30 min of incubation” value in data set [1] (0.2 M sodium acetate buffer pH 5.03, 0.025 µg/µl, 1:1 protein/peptide ratio) is reported as “almost disappeared”. Moreover, the “most stable fragment (main peak after 24 h of incubation)” value in data set [1] (pH 5.03, 0.025 µg/µl) was “tripeptide (KRL) covalently attached to INH”.
